For the assay, the target named is Toll-like receptor 9 (rat (endogenous in AR4-2J)).

The text below walks through data of publication PMC6356355.

For “Recombinant histone H4 (from UniProt P62805 1-103) (natural protein)”, the blockade of H4 (5 mgL^-1)-induced calcium oscillations in AR4-2J cells by simultaneous perfusion of TLR9 antagonist ODN2088 (5 uM) came to 88%.
